Experimental findings from PMC11417369, “DNA sequence and chromatin differentiate sequence-specific transcription factor binding in the human malaria parasite Plasmodium falciparum” are described below.

The target of this series is T1, PF3D7_0420300 D1 (Plasmodium falciparum, UniProt Q8I1N6 1956-2015).
T1 sequence: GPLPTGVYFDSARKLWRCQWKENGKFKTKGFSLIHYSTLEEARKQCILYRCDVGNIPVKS
In words: gcPBM; about 25 ug protein; PBS, 1% milk, 0.2 mg/ml BSA, salmon testes DNA, 0.03% Triton X-100. Particulars: tags: N-terminal GST (pGEX-4T-1), kept; label: surface-attached array probe.

B1: CACACA_site5414 (dsDNA)
DNA 1: AACAAGTTGCATGGTGCACACATGTATTTATATCTA
DNA 2: TAGATATAAATACATGTGTGCACCATGCAACTTGTT
Take B1: the binding signal was 9.53 ln median PBM intensity, better of two orientations.

B2: CACACA_site2379 (dsDNA)
DNA 1: ACATAGCAATGTTTCACACACAAGAAAAAATACAAT
DNA 2: ATTGTATTTTTTCTTGTGTGTGAAACATTGCTATGT
Turning to B2, the binding signal is 9.85 ln median PBM intensity, better of two orientations.

B3: CACACA_site8576 (dsDNA)
DNA 1: TTCTTACATAAAATATCACACACATAAAAAAACAAT
DNA 2: ATTGTTTTTTTATGTGTGTGATATTTTATGTAAGAA
As to B3, the binding signal was 9.93 ln median PBM intensity, better of two orientations.

B4: CACACA_site3513 (dsDNA)
DNA 1: CAATTACGCAGGAATGCACACAATAATAAAAAAAAT
DNA 2: ATTTTTTTTATTATTGTGTGCATTCCTGCGTAATTG
B4: the binding signal is 9.51 ln median PBM intensity, better of two orientations.

B5: CACACA_site3334 (dsDNA)
DNA 1: ATTTTATTTTTTCACACACACATATATATATATATA
DNA 2: TATATATATATATATGTGTGTGTGAAAAAATAAAAT
Regarding B5, the binding signal is 9.91 ln median PBM intensity, better of two orientations.

B6: CACACA_site4213 (dsDNA)
DNA 1: GGAATAGTAATATATACACACAAATACAGATATATA
DNA 2: TATATATCTGTATTTGTGTGTATATATTACTATTCC
With B6, the binding signal was 9.83 ln median PBM intensity, better of two orientations.

B7: CACACA_site1517 (dsDNA)
DNA 1: TATGAAATTATAATTACACACAGGAAAATAAAATGT
DNA 2: ACATTTTATTTTCCTGTGTGTAATTATAATTTCATA
As for B7, the binding signal is 9.83 ln median PBM intensity, better of two orientations.

B8: CACACA_site4786 (dsDNA)
DNA 1: AATATACACCCGTGTACACAAATATTTACAAAACGT
DNA 2: ACGTTTTGTAAATATTTGTGTACACGGGTGTATATT
As for B8, the binding signal is 9.51 ln median PBM intensity, better of two orientations.

B9: CACACA_site8191 (dsDNA)
DNA 1: TATTATATTATACATACACACCCATATAATATGTTT
DNA 2: AAACATATTATATGGGTGTGTATGTATAATATAATA
On to B9, for which the binding signal was 9.49 ln median PBM intensity, better of two orientations.

B10: CACACA_site7392 (dsDNA)
DNA 1: GGTTCATATCTTAACACACACATACATATTATAGAT
DNA 2: ATCTATAATATGTATGTGTGTGTTAAGATATGAACC
On to B10, for which the binding signal is 9.92 ln median PBM intensity, better of two orientations.

B11: CACACA_site1529 (dsDNA)
DNA 1: AACTATAAAAAAAATACACACATTACCAAAAATATA
DNA 2: TATATTTTTGGTAATGTGTGTATTTTTTTTATAGTT
As for B11, the binding signal was 9.86 ln median PBM intensity, better of two orientations.

B12: CACACA_site3144 (dsDNA)
DNA 1: ATAAAATATATGAAGACACACATAACATCATATTTT
DNA 2: AAAATATGATGTTATGTGTGTCTTCATATATTTTAT
Take B12: the binding signal was 9.52 ln median PBM intensity, better of two orientations.

B13: CACACA_site3424 (dsDNA)
DNA 1: GATGAGGACAAACACACACACATAAGTTGATACATA
DNA 2: TATGTATCAACTTATGTGTGTGTGTTTGTCCTCATC
In the case of B13, the binding signal was 9.89 ln median PBM intensity, better of two orientations.

B14: CACACA_site1730 (dsDNA)
DNA 1: AAAATTTTTTACTTTACACACATTTTGTATATTTTG
DNA 2: CAAAATATACAAAATGTGTGTAAAGTAAAAAATTTT
Regarding B14, the binding signal was 9.87 ln median PBM intensity, better of two orientations.

B15: CACACA_site2768 (dsDNA)
DNA 1: TAGAACAAATAAAACACACACATATATATATATATG
DNA 2: CATATATATATATATGTGTGTGTTTTATTTGTTCTA
As for B15, the binding signal was 9.9 ln median PBM intensity, better of two orientations.

B16: CACACA_site3507 (dsDNA)
DNA 1: TATATAAACCCGTACACACACATATATGTATATATA
DNA 2: TATATATACATATATGTGTGTGTACGGGTTTATATA
For B16, the binding signal was 9.93 ln median PBM intensity, better of two orientations.

B17: CACACA_site1962 (dsDNA)
DNA 1: TTTTTAACATATCATACACACAACAACTTTTTATAG
DNA 2: CTATAAAAAGTTGTTGTGTGTATGATATGTTAAAAA
As to B17, the binding signal is 9.54 ln median PBM intensity, better of two orientations.

B18: CACACA_site4960 (dsDNA)
DNA 1: TTAATAACAAAATAAACACACATATATAAATACCCA
DNA 2: TGGGTATTTATATATGTGTGTTTATTTTGTTATTAA
On to B18, for which the binding signal is 9.9 ln median PBM intensity, better of two orientations.

B19: CACACA_site8016 (dsDNA)
DNA 1: TTAGGTAGAAAAAAGACACACACATTATATATATAT
DNA 2: ATATATATATAATGTGTGTGTCTTTTTTCTACCTAA
Consider B19, for which the binding signal was 9.94 ln median PBM intensity, better of two orientations.

B20: CACACA_site6268 (dsDNA)
DNA 1: AACATATTTATATACACACACATATTTATATGAAAT
DNA 2: ATTTCATATAAATATGTGTGTGTATATAAATATGTT
For B20, the binding signal was 9.85 ln median PBM intensity, better of two orientations.

B21: CACACA_site5943 (dsDNA)
DNA 1: AAATAAATATATAATACACACAAAAATATAAAATGG
DNA 2: CCATTTTATATTTTTGTGTGTATTATATATTTATTT
Consider B21, for which the binding signal is 9.84 ln median PBM intensity, better of two orientations.

B22: CACACA_site2478 (dsDNA)
DNA 1: TAAACAGACATATAAACACACATATAAACCGACATA
DNA 2: TATGTCGGTTTATATGTGTGTTTATATGTCTGTTTA
In the case of B22, the binding signal is 9.92 ln median PBM intensity, better of two orientations.

B23: CACACA_site7096 (dsDNA)
DNA 1: TACCTATATACATACACACACATATAACCAATGTAG
DNA 2: CTACATTGGTTATATGTGTGTGTATGTATATAGGTA
With B23, the binding signal was 9.88 ln median PBM intensity, better of two orientations.

B24: CACACA_site337 (dsDNA)
DNA 1: AGCAGACACCAACACACACACATATATATATATATA
DNA 2: TATATATATATATATGTGTGTGTGTTGGTGTCTGCT
For the molecule B24, the binding signal was 9.86 ln median PBM intensity, better of two orientations.

B25: CACACA_site9081 (dsDNA)
DNA 1: TTTTACTAAATATATACACACATTATACATATATAT
DNA 2: ATATATATGTATAATGTGTGTATATATTTAGTAAAA
With B25, the binding signal was 9.49 ln median PBM intensity, better of two orientations.

B26: CACACA_site377 (dsDNA)
DNA 1: AGGTAGAAAAAAGACACACACATTATGTATATATAT
DNA 2: ATATATATACATAATGTGTGTGTCTTTTTTCTACCT
On to B26, for which the binding signal was 9.87 ln median PBM intensity, better of two orientations.

B27: CACACA_site2570 (dsDNA)
DNA 1: AAAAGATAATTATGCACACACACACCCCCACCCAAC
DNA 2: GTTGGGTGGGGGTGTGTGTGTGCATAATTATCTTTT
On to B27, for which the binding signal is 10.8 ln median PBM intensity, better of two orientations.

B28: CACACA_site2985 (dsDNA)
DNA 1: AATATTTATAAAGACACACAAACAAAAAGGATAAAA
DNA 2: TTTTATCCTTTTTGTTTGTGTGTCTTTATAAATATT
For B28, the binding signal was 9.84 ln median PBM intensity, better of two orientations.

B29: CACACA_site6321 (dsDNA)
DNA 1: AAATTAATTAAATATACACACATATATAGATATATA
DNA 2: TATATATCTATATATGTGTGTATATTTAATTAATTT
Consider B29, for which the binding signal is 9.5 ln median PBM intensity, better of two orientations.

B30: CACACA_site8579 (dsDNA)
DNA 1: AATATTTATAAATTTACACACACACCGGTGAACATA
DNA 2: TATGTTCACCGGTGTGTGTGTAAATTTATAAATATT
Take B30: the binding signal was 9.89 ln median PBM intensity, better of two orientations.
